The source of these data is patent US20040147006.

The subject of data set [1] is phosphorylated T-ag peptide of SEQ ID NO: 15 used in the ATPase assay.
Data set [2] has as its system unphosphorylated peptide E1-P2 25 (SEQ ID NO: 2).
The subject of data set [3] is phosphorylated peptide E1-P1 25 (SEQ ID NO: 18).
Data set [4] has as its system unphosphorylated peptide T-2 13 (SEQ ID NO: 3).

As to SV40 T-antigen (T-ag), the “ATPase of T-ag (32P-ATP hydrolysis, TLC autoradiography)” value in data set [1] is listed as “the phosphorylated peptide did not modulate the ATPase of T-ag activity”; in data set [2] it was “blocked the degradation of ATP by T-ag”; in data set [3], “had no effect”; in data set [4], “this peptide inhibited the ATPase of T-ag”.
